Results taken from patent US20040077547A1, “FVIIa antagonists” (Genentech, Inc., priority 1999, published 2004).
Where no end group is shown, it is not given here.

What was measured:
recombinant human FVIIa [1] = target: T1, recombinant human FVIIa (Homo sapiens, UniProt P08709); assay: FVIIa Binding ELISA (competition with TF183b); settings: for affinity for FVIIa: compared with SEQ ID NO: 4
T1 construct: proteolysis of FVII to FVIIa at a site (Arg152-Ile153 for human FVII (hFVII))
T1 sequence (P08709 61-212 limits assumed): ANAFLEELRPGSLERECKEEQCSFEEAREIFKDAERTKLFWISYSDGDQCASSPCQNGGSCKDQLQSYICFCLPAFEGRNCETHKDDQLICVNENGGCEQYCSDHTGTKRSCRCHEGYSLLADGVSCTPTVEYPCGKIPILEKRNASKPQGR
T1 sequence (P08709 213-466 limits assumed): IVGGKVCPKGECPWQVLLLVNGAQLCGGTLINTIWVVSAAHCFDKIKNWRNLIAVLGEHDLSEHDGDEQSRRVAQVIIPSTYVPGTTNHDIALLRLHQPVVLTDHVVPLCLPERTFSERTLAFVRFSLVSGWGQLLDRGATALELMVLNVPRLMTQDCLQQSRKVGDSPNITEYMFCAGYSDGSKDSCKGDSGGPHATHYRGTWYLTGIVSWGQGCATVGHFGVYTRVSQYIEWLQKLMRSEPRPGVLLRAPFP
Method: FVIIa Binding ELISA—The ability of peptides to compete with biotinylated TF183 (TF183b) (or other peptides described herein that could be biotinylated as described) for binding to FVIIa was monitored using a FVIIa Binding ELISA or a TF-FVIIa Binding ELISA. Microtiter plates were coated overnight with 2 μg/ml recombinant human FVIIa or 2 μg/ml TF1-243 (Paborsky, L. R., et al., J. Biol. Chem. 266: 21911 (1991)) in 50 mM ammonium bicarbonate pH 9 at 4° C.; all other steps were performed at room temperature. Plates were then blocked with 1% BSA in Assay Buffer (50 mM HEPES, pH 7.2, 5 mM CaCl2, 150 mM NaCl). For the TF-FVIIa ELISA, recombinant human FVIIa (2 μg/ml) in 1% BSA in Assay Buffer was added for 30 min to the wells previously coated and blocked with TF to form the TF-FVIIa complex. Dilutions of peptide in Assay Buffer plus 0.05% Tween 20 were added to the microtiter plate along with 5 nM TF183b for 1 h. The microtiter plate was washed 3 times with Assay Buffer plus 0.05% Tween 20 and the biotinylated-peptide bound was detected with a Streptavidin/HRP conjugate (Streptavidin-POD, Roche Molecular Biochemicals). The amount of HRP bound was measured using ABTS/H2O2 substrate (Kirkegaard and Perry Laboratories) and monitoring the absorbance at 405 nm. The absorbance at 405 nm was plotted versus the concentration of peptide originally added to the well. Sigmoidal curves were fit to a four-parameter equation by nonlinear regression analysis (Marquardt, J. Soc. Indust. Appl. Math. 11:431-441 (1963); the concentration of each peptide required to give a half-maximal signal in the assay was calculated from the curves and is referred to as the IC50 value.

TF-FVIIa = target: T2, TF-FVIIa (Homo sapiens, UniProt P08709); assay: FX Activation Assay; type: biochemical; settings: compared with SEQ ID NO: 4
T2 construct: proteolysis of FVII to FVIIa at a site (Arg152-Ile153 for human FVII (hFVII))
Method: FX Activation Assay—Activation of FX by TF-FVIIa was monitored at room temperature as a function of peptide concentration. Each assay sample contained 100 μl of 460 pM relipidated TF1-243 (Kelley, R. F., et al. Blood 89:3219-3227 (1997)) and 30 pM FVIIa in HBS/Ca buffer (20 mM HEPES, pH 7.4, 5 mM CaCl2, 150 mM NaCl, 0.1% PEG 8000); after 20 min, 25 μl of peptide diluted in HBS/Ca Buffer was added. Following a 30 min incubation the reaction was initiated by the addition of 25 μl of 1 μM FX in HBS/Ca (Note: this yields a final concentration of 306 pM TFPC, 20 pM FVIIa, and 166 nM FX). For kinetic analysis, the final concentration of FX was varied from between 20 and 500 nM. Aliquots of 25 μl were removed at 1, 3, 5, 7 and 9 min and quenched in 25 μl of 50 mM EDTA. The FXa generated in each aliquot could be measured by the addition of 100 μl of 250 μM Spectrozyme fXa (American Diagnostica), 50 mM Tris, pH 8, 50 mM NaCl, 0.0025% Triton X-100. The rate of FXa generated at each peptide concentration was proportional to the initial slope of the absorbance at 405 nm vs. time. Sigmoidal curves were fit to a four-parameter equation by nonlinear regression analysis (Marquardt, J. Soc. Indust. Appl. Math. 11:431-441 (1963)); the concentration of each peptide required to give a half-maximal signal in the assay was calculated from the curves and is referred to as the IC50 value.

recombinant human FVIIa [2] = target: T1, recombinant human FVIIa; assay: Peptide-phage binding to immobilized FVIIa; settings: polyvalent phage display
Method: (§1) Selection Conditions—TF1-243 (Paborsky, L. R., et al., J. Biol. Chem. 266: 21911 (1991)) or recombinant human FVIIa (2 μg/ml each) were immobilized directly to Maxisorp plates (Nunc) in 50 mM ammonium bicarbonate, pH 9.3 by incubating overnight at 4° C. Wells were blocked using Sorting Buffer (50 mM HEPES, pH 7.2, 5 mM CaCl2, 5 mM MgCl2, 150 mM NaCl, 1% BSA) for 1 h at 25° C. Recombinant human FVIIa (2 μg/ml) in Sorting Buffer was added for 30 min to wells previously coated and blocked with TF to form the TF-FVIIa complex. Phage from the libraries described above were pooled into 3 groups. Pool A contained XiCXjCXk where j=5-7; Pool B contained X4CX2GPX4CX4, X20 and XiCXjCXk where j=4; Pool E contained XiCXjCXk where j=8-10. Phage from each pool were incubated with the immobilized targets in Sorting Buffer for 3 h at 25° C.; generally about 5×10^10 phage were added at the beginning of each round. Unbound phage were removed by repetitive washing with Wash Buffer (50 mM HEPES, pH 7.2, 150 mM NaCl, 0.005% Tween 20); remaining phage were eluted with 500 mM KCl, 10 mM HCl, pH 2. The eluted phage were then propagated in XL1-Blue cells with VCSM13 helper phage (Stratagene) overnight at 37° C. Enrichment could be monitored by titering the number of phage which bound to a target coated well compare to a well coated with BSA. […]

TF-FVIIa complex = target: T3, TF-FVIIa complex (Homo sapiens, UniProt P08709); assay: Peptide-phage binding to immobilized TF-FVIIa
T3 construct: proteolysis of FVII to FVIIa at a site (Arg152-Ile153 for human FVII (hFVII))
Method: as §1

TF = target: T4, TF (Homo sapiens, UniProt P13726); assay: Peptide-phage binding to wells coated with TF; settings: polyvalent phage display; also BSA-coated wells
T4 construct: TF1-243 for membrane tissue factor composed of the extracellular domain and transmembrane amino acid residues 1-243
Method: as §1

BSA = target: T5, BSA (bovine, UniProt P02769 25-607); assay: phage binding to coated wells
T5 construct: Control coat
T5 sequence (P02769 25-607 limits assumed): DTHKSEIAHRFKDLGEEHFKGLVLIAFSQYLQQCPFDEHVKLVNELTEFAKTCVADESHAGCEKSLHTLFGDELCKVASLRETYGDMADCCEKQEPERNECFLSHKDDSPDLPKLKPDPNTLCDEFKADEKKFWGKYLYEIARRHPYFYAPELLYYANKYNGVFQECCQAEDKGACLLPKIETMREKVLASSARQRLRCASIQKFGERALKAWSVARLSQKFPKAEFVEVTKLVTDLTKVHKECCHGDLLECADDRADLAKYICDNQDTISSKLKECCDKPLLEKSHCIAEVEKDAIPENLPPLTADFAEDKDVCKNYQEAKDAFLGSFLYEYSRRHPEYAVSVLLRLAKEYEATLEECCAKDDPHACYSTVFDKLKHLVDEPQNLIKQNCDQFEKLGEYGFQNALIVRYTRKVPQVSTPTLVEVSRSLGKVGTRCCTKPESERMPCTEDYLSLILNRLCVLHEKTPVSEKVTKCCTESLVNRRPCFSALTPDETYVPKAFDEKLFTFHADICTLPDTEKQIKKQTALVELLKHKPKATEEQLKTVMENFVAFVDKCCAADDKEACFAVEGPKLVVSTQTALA

T3 sequence (P13726 33-275 partner limits assumed, one chain of several): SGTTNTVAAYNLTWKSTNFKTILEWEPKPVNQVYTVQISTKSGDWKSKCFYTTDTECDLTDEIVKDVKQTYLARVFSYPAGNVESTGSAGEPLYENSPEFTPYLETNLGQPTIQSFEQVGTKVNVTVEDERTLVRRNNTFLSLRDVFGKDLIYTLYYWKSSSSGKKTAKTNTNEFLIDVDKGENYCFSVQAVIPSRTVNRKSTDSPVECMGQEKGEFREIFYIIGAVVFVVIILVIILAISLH
T2 sequence (P13726 33-275 partner limits assumed, one chain of several): as above
T4 sequence (P13726 33-275): as the sequence (P13726 33-275 partner limits assumed, one chain of several) above

TF100Z: TF100 peptide fused to the Z consensus domain of protein A (EEWEVLCWTWETCERGEGGGGSGG)
affinity for FVIIa (recombinant human FVIIa [1]): improved affinity | ability to inhibit FX activation (TF-FVIIa): increased ability to inhibit FX activation

EEWEVLCWTWETCER [TF183]
IC50 for FVIIa (recombinant human FVIIa [1]; compared with TF65 (SEQ ID NO: 4), values in FIG. 4, not given): decreased IC50

EEWEVLCWTWETCERGEG [TF100]
affinity for FVIIa (recombinant human FVIIa [1]): improved affinity | ability to inhibit FX activation (TF-FVIIa): increased ability to inhibit FX activation

SAEWEVLCWTWEGCGSVGLV [TF53]
binding of phage bearing the sequence to immobilized FVIIa (recombinant human FVIIa [2]): bound specifically | binding to covalently and noncovalently active site blocked TF-FVIIa (TF-FVIIa complex; active site alkylated with biotinylated EGR chloromethylketone or blocked by TF7I-C): bound | binding of phage bearing the sequence to immobilized TF-FVIIa (TF-FVIIa complex; polyvalent phage display): bound specifically | binding of phage bearing the sequence to wells coated with TF (TF): did not bind

B1: TF53 peptide-phage (polyvalent phage clone from Pool A bearing SAEWEVLCWTWEGCGSVGLV) (peptide)
peptide: SAEWEVLCWTWEGCGSVGLV
modifications: cysteine pairing not given here; also: displayed on phage as a coat-protein fusion
binding result (BSA): no binding
